Experiments:
[1] = target: Flag-Plk1(K82M) (UniProt P53350); assay: pull-down from mixed HeLa lysates, anti-Flag blot (FIG. 3D)
[2] = target: Plk1 PBD (residues 326-603), purified recombinant (UniProt P53350); assay: ITC, 25 C
[3] = target: PBD of human Plk2 (residues 373 to 685) (human) (UniProt Q9NYY3); assay: ITC
[4] = target: Plk1 PBD (residues 326-603), purified recombinant (UniProt P53350); assay: ITC (Table 1, not given)
[5] = target: Plk1 (endogenous, in mitotic HeLa cell lysates) (UniProt P53350); assay: pull-down from mitotic HeLa lysate with bead-immobilised peptide (FIG. 1A)
[6] = target: PBD of human Plk2 (residues 373 to 685) (human) (UniProt Q9NYY3); assay: ITC; no saturable binding

Flag-Plk1(K82M), sequence (P53350 whole entry K82M, the tested form may be a part): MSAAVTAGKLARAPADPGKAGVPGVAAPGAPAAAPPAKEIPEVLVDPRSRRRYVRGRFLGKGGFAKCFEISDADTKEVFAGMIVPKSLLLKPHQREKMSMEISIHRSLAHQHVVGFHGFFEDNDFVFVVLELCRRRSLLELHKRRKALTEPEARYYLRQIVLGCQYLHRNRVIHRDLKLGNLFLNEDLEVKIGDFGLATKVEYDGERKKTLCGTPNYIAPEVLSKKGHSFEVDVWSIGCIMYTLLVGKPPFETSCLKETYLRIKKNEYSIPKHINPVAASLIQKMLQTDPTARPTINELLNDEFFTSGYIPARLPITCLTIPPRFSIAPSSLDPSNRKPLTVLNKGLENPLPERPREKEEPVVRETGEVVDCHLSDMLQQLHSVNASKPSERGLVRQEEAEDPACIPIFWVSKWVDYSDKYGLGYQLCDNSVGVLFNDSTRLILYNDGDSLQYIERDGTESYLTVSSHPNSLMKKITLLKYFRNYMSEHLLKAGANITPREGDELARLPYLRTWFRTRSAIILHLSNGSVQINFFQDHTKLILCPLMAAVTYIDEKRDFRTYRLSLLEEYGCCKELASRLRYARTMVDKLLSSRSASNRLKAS
PBD of human Plk2 (residues 373 to 685) (human), sequence (Q9NYY3 373-685 limits assumed): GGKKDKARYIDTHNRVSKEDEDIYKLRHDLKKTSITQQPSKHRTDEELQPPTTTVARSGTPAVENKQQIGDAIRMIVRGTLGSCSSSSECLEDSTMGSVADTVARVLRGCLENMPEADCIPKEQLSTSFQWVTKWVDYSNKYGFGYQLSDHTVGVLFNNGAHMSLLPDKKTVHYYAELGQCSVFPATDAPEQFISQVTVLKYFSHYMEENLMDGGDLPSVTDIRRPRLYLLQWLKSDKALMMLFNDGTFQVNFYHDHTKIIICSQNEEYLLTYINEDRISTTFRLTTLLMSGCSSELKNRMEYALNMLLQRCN
Plk1 PBD (residues 326-603), purified recombinant, sequence (P53350 326-603 limits assumed): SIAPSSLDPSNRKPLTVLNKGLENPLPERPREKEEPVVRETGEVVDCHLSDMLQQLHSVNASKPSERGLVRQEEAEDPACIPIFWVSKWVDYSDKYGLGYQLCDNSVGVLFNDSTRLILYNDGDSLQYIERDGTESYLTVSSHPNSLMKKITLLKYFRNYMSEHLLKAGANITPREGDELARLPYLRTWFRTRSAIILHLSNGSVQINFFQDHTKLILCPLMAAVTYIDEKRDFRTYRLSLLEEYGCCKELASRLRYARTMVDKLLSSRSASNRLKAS
Plk1 (endogenous, in mitotic HeLa cell lysates), sequence (P53350 2-603 limits assumed): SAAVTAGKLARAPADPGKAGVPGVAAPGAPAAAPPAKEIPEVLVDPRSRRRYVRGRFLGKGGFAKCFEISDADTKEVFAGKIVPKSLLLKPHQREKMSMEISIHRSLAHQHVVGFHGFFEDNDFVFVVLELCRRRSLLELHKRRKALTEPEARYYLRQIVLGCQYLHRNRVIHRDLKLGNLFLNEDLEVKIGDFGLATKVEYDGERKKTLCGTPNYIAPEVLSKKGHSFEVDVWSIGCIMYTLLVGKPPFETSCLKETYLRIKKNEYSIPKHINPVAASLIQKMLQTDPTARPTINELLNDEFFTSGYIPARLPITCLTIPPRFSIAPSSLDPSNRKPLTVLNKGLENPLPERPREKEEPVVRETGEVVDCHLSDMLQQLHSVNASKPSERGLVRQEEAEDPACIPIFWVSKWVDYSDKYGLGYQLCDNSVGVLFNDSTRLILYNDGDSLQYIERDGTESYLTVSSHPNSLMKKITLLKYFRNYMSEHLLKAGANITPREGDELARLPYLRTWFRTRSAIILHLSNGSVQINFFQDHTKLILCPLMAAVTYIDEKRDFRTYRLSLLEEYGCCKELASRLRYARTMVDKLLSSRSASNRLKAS

PPHSpT (peptide) was tested, and the fold decrease in binding against PLHSpT [1] was 20 fold.

LHSpTA (peptide) was tested, and the Kd [2] was 0.45 µM.

PLQSpT (peptide) was tested, and the initial heats of interaction [3] was 1.1 kcal/mol.

With LHSpT (peptide) the fold weaker binding than PLHSpT [4] was 50 fold and the fold decrease in binding against PLHSpT [5] was 7 fold.

In the case of “PLHSpT with Leu-3 mutated to Ala (peptide)”, the fold decrease in binding against PLHSpT [1] is reported as 3 fold.

MQSpTPL (peptide) was tested, and the initial heats of interaction [6] was -1.68 kcal/mol.
